Assay results taken from patent publication US20260232840A1 (UNIVERSITY OF BRITISH COLUMBIA, published 2026).

Experiments:
aggregated SOD1 [1] = target: T1, aggregated SOD1 (UniProt P00441 2-154); experiment: indirect ELISA; OD on aggregated SOD1 over OD on dimeric SOD1
T1 construct: Same protein as Dim SOD1, in a different conformational state; also called Agg SOD1
Method: (§1) Supernatants producing hybridoma cell cultures producing rabbit monoclonal antibodies are analyzed by indirect ELISA for antibody activity on plates coated with 1 μg/well of peptide or protein antigen. […] The binding of anti-SOD1 antibodies were also characterized by ratio analyzes.

aggregated SOD1 [2] = target: T1, aggregated SOD1; experiment: indirect ELISA; ratio of the EC50 values on aggregated and dimeric SOD1
Method: as §1

T1 sequence (P00441 2-154 limits assumed): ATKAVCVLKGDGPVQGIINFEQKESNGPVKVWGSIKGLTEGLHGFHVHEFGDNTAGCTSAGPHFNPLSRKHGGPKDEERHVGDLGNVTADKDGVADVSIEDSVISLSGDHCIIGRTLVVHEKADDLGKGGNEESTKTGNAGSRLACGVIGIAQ

Ab conc (ng/mL) at peak agg/dim OD ratio (aggregated SOD1 [1]) [ng/mL] | Peak agg/dim OD ratio (aggregated SOD1 [1]) | Ratio Agg/Dim SOD1 EC50 (aggregated SOD1 [2]) | Binder
6.01 | 10.7 | 26.7 | rabbit anti-SOD1 antibody A-7-63 H2/L1 (antibody, Rabbit monoclonal antibody; also called A-63 H2 + A-63 L1) heavy: QSVGESGGGLVTPGTPLTLTCTVSGFSLSSYGVSWVRQAPGKGLEYIGFISTRGNPYYASWAKGRFTISKTSTTVDLKITSPTTEDTATYFCAGATVVGDSIWGPGTLVTVSSGQPKAPSVFPLAPCCGDTPSSTVTLGCLVKGYLPEPVTVTWNSGTLTNGVRTFPSVRQSSGLYSLSSVVSVTSSSQPVTCNVAHPATNTKVDKTVAPSTCSKPTCPPPELLGGPSVFIFPPKPKDTLMISRTPEVTCVVVDVSQDDPEVQFTWYINNEQVRTARPPLREQQFNSTIRVVSTLPIAHQDWLRGKEFKCKVHNKALPAPIEKTISKARGQPLEPKVYTMGPPREELSSRSVSLTCMINGFYPSDISVEWEKNGKAEDNYKTTPAVLDSDGSYFLYSKLSVPTSEWQRGDVFTCSVMHEALHNHYTQKSISRSPGK light: QVLTQTASSVSAAVGGTVTISCQSSQSVYKGYWQAWYQQKPGQPPKLLIYETSTLASGVPSRFSGSGSGTQFTLTISGVQCDDAATYYCAGGYSNNIYTFGGGTEVVVKGDPVAPTVLIFPPAADQVATGTVTIVCVANKYFPDVTVTWEVDGTTQTTGIENSKTPQNSADCTYNLSSTLTLTSTQYNSHKEYTCKVTQGTTSVVQSFNRGDC
5.11 | 11.6 | 32.8 | rabbit anti-SOD1 antibody A-7-63 H3/L1 (antibody, Rabbit monoclonal antibody; also called A-63 H3 + A-63 L1) heavy: QSVEESGGGLVTPGTPLTLTCTVSGFSLSSYGVSWVRQAPGKGLEYIGFISTRGNPYYASWAKGRFTISKTSTTVDLKITSPTTEDTATYFCAGATVVGDSIWGPGTLVTVSSGQPKAPSVFPLAPCCGDTPSSTVTLGCLVKGYLPEPVTVTWNSGTLTNGVRTFPSVRQSSGLYSLSSVVSVTSSSQPVTCNVAHPATNTKVDKTVAPSTCSKPTCPPPELLGGPSVFIFPPKPKDTLMISRTPEVTCVVVDVSQDDPEVQFTWYINNEQVRTARPPLREQQFNSTIRVVSTLPIAHQDWLRGKEFKCKVHNKALPAPIEKTISKARGQPLEPKVYTMGPPREELSSRSVSLTCMINGFYPSDISVEWEKNGKAEDNYKTTPAVLDSDGSYFLYSKLSVPTSEWQRGDVFTCSVMHEALHNHYTQKSISRSPGK light: QVLTQTASSVSAAVGGTVTISCQSSQSVYKGYWQAWYQQKPGQPPKLLIYETSTLASGVPSRFSGSGSGTQFTLTISGVQCDDAATYYCAGGYSNNIYTFGGGTEVVVKGDPVAPTVLIFPPAADQVATGTVTIVCVANKYFPDVTVTWEVDGTTQTTGIENSKTPQNSADCTYNLSSTLTLTSTQYNSHKEYTCKVTQGTTSVVQSFNRGDC
10.3 | 12.7 | 30.4 | rabbit anti-SOD1 antibody A-7-58 H1/L1 (antibody, V domains shown, Rabbit monoclonal antibody; also called A-58 H1 + A-58 L1) VH: QSVEESGGRLVTPGTPLTLTCTVSGIDLSSSVMAWVRQAPGKGLEWIGIITNRGNRYYAKWAKGRFTISRTSTTVGLKITSPTTADTATYFCGRGSVWGPGTLVTVSS VL: QVLTQTPASVSAAIGGTVTIKCQSSQSFLDDNDLAWYQKKPGRPPKRLIKSASTLDSGVPSRFSGSGSGTQFTLTISDVQCADAATYYCLGDYDCSVGDCSAFGGGTEVVVKG
